This is an account of results in patent US20240029824A1 (University of Washington, published 2024).

Test [1] addresses T1, DHT03 chain C (SEQ ID NO: 59).
T1 chain: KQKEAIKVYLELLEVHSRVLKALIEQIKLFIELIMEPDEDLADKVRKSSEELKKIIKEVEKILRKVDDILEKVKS
Put plainly: chains mixed and annealed, SEC, negative stain EM; A4B4C4 ring.

For the next test, the target named is T2, C4-DHT03-01 chain B.
T2 construct: four copies in the A4B4C4 ring; also called C4-DHT03-01-DHR82 chain B
T2 chain: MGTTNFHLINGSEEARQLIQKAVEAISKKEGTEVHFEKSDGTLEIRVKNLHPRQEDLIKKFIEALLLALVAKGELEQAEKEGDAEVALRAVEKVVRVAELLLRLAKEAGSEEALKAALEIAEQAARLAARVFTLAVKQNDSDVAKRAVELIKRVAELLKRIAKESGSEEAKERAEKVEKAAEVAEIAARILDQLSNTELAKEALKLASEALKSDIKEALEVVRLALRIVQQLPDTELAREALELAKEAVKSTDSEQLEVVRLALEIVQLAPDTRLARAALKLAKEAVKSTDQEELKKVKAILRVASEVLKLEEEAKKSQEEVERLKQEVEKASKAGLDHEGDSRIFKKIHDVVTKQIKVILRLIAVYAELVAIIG
The description is as above.

Test [2] addresses T3, DHT03_3arm_A21/B21/C82 chain C.
T3 construct: also called chain C DHR82 fusion; chain C of C3-DHT03-01-DHR82 and C4-DHT03-01-DHR82
T3 chain: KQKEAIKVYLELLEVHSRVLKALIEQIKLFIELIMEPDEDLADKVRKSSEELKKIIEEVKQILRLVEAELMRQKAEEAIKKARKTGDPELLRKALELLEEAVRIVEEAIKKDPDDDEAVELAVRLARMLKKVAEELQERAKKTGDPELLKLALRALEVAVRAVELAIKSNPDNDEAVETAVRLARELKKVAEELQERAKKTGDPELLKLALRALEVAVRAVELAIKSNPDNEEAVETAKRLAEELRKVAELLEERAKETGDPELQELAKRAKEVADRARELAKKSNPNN
Nature of the test: three components purified separately, mixed equimolar, heat annealed, SEC, negative stain EM. From the text:
As is evident from the images in FIGS. 4c and 4d, the cyclic structures retain one of the original heterotrimer helical hairpins in each corner; these short, outward facing protein chains provide fusion points for further elaboration of higher order symmetric assemblies. To evaluate the potential for building up larger nanostructures using the rings as hubs, and explore the modularity of the designed building blocks, we replaced the original outward facing chain C helical hairpin with the chain C DHR82 fusion (as it was the largest 4-repeat DHR) from FIG. 3d, row 8. This was done for two designs (C3-DHT03-01 and C4-DHT03-01), with chain C replaced by fusion C82 through expressing and purifying the three components separately, mixing them in equal molar quantities, and reconstituting using heat annealing.
An AKTA PURE FPLC system was used. Heterotrimer bases, arm extensions, coiled coil C2 rings, and all constructs mentioned in SI were passed through a Cytvia Superdex S200 Increase 10/300 GL column, while C3/C4 rings made from DHT03 were passed through a Cytvia Superdex S6 Increase 10/300 GL column. The mobile phase was TBS (25 mM Tris-HCl pH 8.0, 100 mM NaCl or 25 mM Tris-HCl pH 8.0, 150 mM NaCl). Samples ran at a flow rate of 0.75 ml/min and fractions were collected at 0.5 ml.

For test [3], the target named is T1, DHT03 chain C (SEQ ID NO: 59). Put plainly: chains mixed and annealed, SEC, negative stain EM; A3B3C3 ring.
For another test, the target named is T4, C3-DHT03-01 chain B.
T4 construct: three copies in the A3B3C3 ring; also called C3-DHT03-01-DHR82 chain B
T4 chain: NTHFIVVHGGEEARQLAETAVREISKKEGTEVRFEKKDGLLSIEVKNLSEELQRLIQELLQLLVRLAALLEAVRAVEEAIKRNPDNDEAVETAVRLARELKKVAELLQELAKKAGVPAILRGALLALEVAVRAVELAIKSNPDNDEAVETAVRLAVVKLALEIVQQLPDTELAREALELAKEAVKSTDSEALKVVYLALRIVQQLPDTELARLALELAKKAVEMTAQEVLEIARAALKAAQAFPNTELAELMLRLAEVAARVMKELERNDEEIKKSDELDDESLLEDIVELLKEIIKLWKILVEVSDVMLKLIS
Described as above.

The target in another test is T5, DHT04 chain B.
T5 chain: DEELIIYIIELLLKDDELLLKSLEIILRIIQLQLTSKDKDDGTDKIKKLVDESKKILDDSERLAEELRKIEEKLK
Nature of the test: co-expression, IMAC, SEC, native MS; chains of one ABC heterotrimer. From the text: (§1) Genes encoding 85 heterotrimers in a tricistronic expression vector were obtained, and the proteins were expressed in E. coli and purified via IMAC with only one chain having the 6×His-tag. Nine of the designs (FIG. 3a) had monodisperse SEC peaks (FIG. 3b), were almost exclusively ABC by nMS, and had good SAXS fits to the design models (Table 7). […] Eight of the designs are parallel heterotrimers, while DHTO9 is an antiparallel heterotrimer. […] For 3 other designs, only the ABC heterotrimer was determined to form by nMS (when the respective SEC fraction was analyzed) but the heterotrimer SEC peak was preceded by soluble aggregate that would make building with these constructs difficult downstream. We explored the dependence of cooperativity on connectivity between the three chains by changing the positions of the loops across different helices in DHT03, while keeping the rest of the interface intact. […] The ability to sustain alternate loop closures increases the number of heteromeric building blocks available for future nanostructure assembly applications and may enable rigid fusion of functional domains to the different termini available.
(§2) Samples were analyzed by online buffer exchange native mass spectrometry (nMS) to evaluate sample purity and accurately determine oligomeric states⁴². Multiple instruments were used as the analyses were carried out over the duration of the protein design process. The mass spectrometers used for detection were a Q Exactive™ UHMR modified with a surface-induced dissociation device and an Exactive™ Plus EMR modified with a selection quadrupole and a surface-induced dissociation device (Thermo Fisher Scientific)⁴³. The liquid chromatography systems used for the buffer exchange include a Vanquish™ Duo UHPLC and a Dionex™ Ultimate 3000 HPLC (Thermo Fisher Scientific). A heated electrospray ionization source (HESI-II, Thermo Fisher Scientific) with a spray voltage of ˜4 kV was used for ionization.

The next test has as its target T6, DHT04 chain C.
T6 chain: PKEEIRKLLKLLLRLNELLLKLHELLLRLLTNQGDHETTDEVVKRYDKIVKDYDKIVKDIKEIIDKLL
The test is described as above.
Source text: as §1, §2

The target in a further test is T7, C3-DHT03-02 chain B.
T7 construct: three copies in the A3B3C3 ring
T7 chain: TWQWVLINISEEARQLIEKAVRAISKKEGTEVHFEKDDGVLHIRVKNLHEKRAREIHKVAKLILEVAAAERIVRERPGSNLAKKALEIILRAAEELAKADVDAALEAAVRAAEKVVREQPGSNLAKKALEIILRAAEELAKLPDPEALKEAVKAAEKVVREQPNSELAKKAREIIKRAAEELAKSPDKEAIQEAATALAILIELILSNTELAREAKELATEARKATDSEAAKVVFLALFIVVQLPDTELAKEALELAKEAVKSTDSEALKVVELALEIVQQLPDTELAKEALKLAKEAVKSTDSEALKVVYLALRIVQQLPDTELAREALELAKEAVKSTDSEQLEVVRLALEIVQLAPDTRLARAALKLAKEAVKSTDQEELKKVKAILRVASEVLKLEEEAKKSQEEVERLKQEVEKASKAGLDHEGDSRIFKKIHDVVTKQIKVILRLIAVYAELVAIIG
Nature of the test: chains mixed and annealed, SEC, negative stain EM; A3B3C3 ring.

The target of another test is T8, C4-DHT03-02 chain B.
T8 construct: four copies in the A4B4C4 ring
T8 chain: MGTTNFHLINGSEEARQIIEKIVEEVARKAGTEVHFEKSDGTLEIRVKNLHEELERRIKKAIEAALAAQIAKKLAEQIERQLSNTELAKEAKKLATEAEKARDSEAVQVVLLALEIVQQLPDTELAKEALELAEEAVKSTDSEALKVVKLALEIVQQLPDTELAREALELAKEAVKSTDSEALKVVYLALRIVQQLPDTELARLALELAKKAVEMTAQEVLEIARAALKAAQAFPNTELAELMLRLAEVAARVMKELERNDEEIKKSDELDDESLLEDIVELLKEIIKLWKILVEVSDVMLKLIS
Nature of the test: chains mixed and annealed, SEC, negative stain EM; A4B4C4 ring.

In the next test the target is T9, DHT02 chain B.
T9 chain: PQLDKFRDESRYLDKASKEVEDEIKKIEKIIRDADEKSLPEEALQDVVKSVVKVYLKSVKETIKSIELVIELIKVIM
Put plainly: co-expression, IMAC, SEC, native MS; chains of one ABC heterotrimer.
Source text: as §1, §2

Another test concerns the target T10, DHT02 chain C.
T10 chain: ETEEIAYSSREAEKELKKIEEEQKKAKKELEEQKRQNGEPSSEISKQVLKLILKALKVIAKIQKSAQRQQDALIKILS
Described as above.
Source text: as §1, §2

B1: C4-DHT03-01 chain A (designed binder)
chain: MGNTHFIVVHGGEEARQLAETAVREISKKEGTEVRFEKKDGLLSIEVKNLSEELQRLIQELLQLLVRLAALLEAVRAVEEAIKRNPDNDEAVETAVRLARELKKVAELLQELAKKAGVPAILRGALLALLVAARAVALAALANSKNDEAREALKRLAEELKKVAKELKERAKKTKDSELERLALAAELMALAAEIVAQLANTELAREALELATEAIKASDDEALRVVKLALRIVQQLPDTELARLALELAKKAVEMTAQEVLEIARAALKAAQAFPNTELAELMLRLAEVAARVMKELERNDEEIKKSDELDDESLLEDIVELLKEIIKLWKILVEVSDVMLKLIS
notes: four copies in the A4B4C4 ring; also called C4-DHT03-01-DHR82 chain A
In the case of B1, the binding result (in [1]; in the test with C4-DHT03-01 chain B; in test [2]) was “binds” each time.

B2: C3-DHT03-01 chain A (designed binder)
chain: TTNFHLINGSEEARQLIQKAVEAISKKEGTEVHFEKSDGTLEIRVKNLHPRQEDLIKKFIEALLLALVAKGELEQAEKEGDAEVALRAVEKVVRVAELLLRLAKEAGSEEALKAALEIAEQAARLAKRVLELAEKQGDAEVALKAVLLVVIVAALLVKIAKESGSEEAKERATRVAREASRLADRVEELARKQNNEDVTLAAKVLKLAADIIAQLMNTELAEEAAQLATEALKATDREQLEVVRLALEIVQLAPDTRLARAALKLAKEAVKSTDQEELKKVKAILRVASEVLKLEEEAKKSQEEVERLKQEVEKASKAGLDHEGDSRIFKKIHDVVTKQIKVILRLIAVYAELVAIIG
notes: three copies in the A3B3C3 ring; also called C3-DHT03-01-DHR82 chain A
Consider B2, for which the binding result (in test [3]; in the test with C3-DHT03-01 chain B; in test [2]) was “binds” throughout.

B3: DHT04 chain A (designed binder)
chain: PERELLELLIRLFNSQVKLFELQKELLELLRELLEENSEDNSRKLEDLLRKIQELLKENQDLLYTVEDVLRKLK
As to B3, the binding result with DHT04 chain B and in the test with DHT04 chain C was “binds” each time.

B4: C3-DHT03-02 chain A (designed binder)
chain: SSIFLLSNVDESARQLAEELVREISKKEGTEVRFEKDDGFLTIEVKNLSEERLREIARALQLIVDVANAERVVRERPGSNLAKKALEIILRAAEELAKLTLEASLKAAQIAAELVVREQPGSNLAEKAKTIILQARAAELAIRIEEQLKDTELAKEAKELATEAIKAQDKEALKVVELALKIVQQLPDTELAKEALKLAKEAVKSTDSEALKVVELALEIVQQLPDTELAKEALELAEEAVKSTDSEALKVVKLALEIVQQLPDTELAREALELAKEAVKSTDSEALKVVYLALRIVQQLPDTELARLALELAKKAVEMTAQEVLEIARAALKAAQAFPNTELAELMLRLAEVAARVMKELERNDEEIKKSDELDDESLLEDIVELLKEIIKLWKILVEVSDVMLKLIS
notes: three copies in the A3B3C3 ring
Regarding B4, the binding result (in [3]; with C3-DHT03-02 chain B) was “binds” in each case.

B5: C4-DHT03-02 chain A (designed binder)
chain: MGNTHFIVVHGGEEARQLAETAVREISKKEGTEVRFEKKDGLLSIEVKNLSEELQRLIQELLQLLVRLAALLEAVRAVEEAIKRNPDNDEAVETAVRLARELKKVAELLQELAKKAGVPAILRGALLALEVAVRAVELAIKSNPDNDEAVETAVRLARELLKVAAELAERAAKTKDEELIKLAQRAIEVAQRAVELAKKSNKDNEEAEKTRLALEAMELALQIFRQLKNTELAREAIELATEAAKATDSEALKVVKLALKIVQQLPDTELAKEALELAKEAVKSTDSEALKVVELALEIVQQLPDTELAKEALKLAKEAVKSTDSEALKVVYLALRIVQQLPDTELAREALELAKEAVKSTDSEQLEVVRLALEIVQLAPDTRLARAALKLAKEAVKSTDQEELKKVKAILRVASEVLKLEEEAKKSQEEVERLKQEVEKASKAGLDHEGDSRIFKKIHDVVTKQIKVILRLIAVYAELVAIIG
notes: four copies in the A4B4C4 ring
Take B5: the binding result (in [1]; with C4-DHT03-02 chain B) was “binds” throughout.

B6: DHT02 chain A (designed binder)
chain: PDSDELRKLLKQLEDLLQQLKDLIDKAERHNGDNDVILELHEIYLRLLDIYQKLAKIILKLLR
In the case of B6, the binding result with DHT02 chain B and with DHT02 chain C was “binds” in each case.
